Data reported in the nanobody polyreactivity screen of Harvey et al. (2022).

Assay: yeast display, Sf9 membrane polyspecificity reagent, FACS + sequencing; frameworks hold sequencing errors
Outline: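 Galactose induction of a Saccharomyces cerevisiae BJ5465 synthetic nanobody display library ran 36–48 hours. The cells were then stained for 1 hour at 4 °C with 10% biotinylated, detergent-solubilized Sf9 membrane reagent, pulled down on streptavidin microbeads and FACS-sorted into low and high (top ~1%) gates on expression and reagent-binding fluorescence. Labels for polyreactivity follow the gate of origin.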

Sequence	polyreactivity (PSR sort gate)
QVQLVESGGGLVQAGGSLRLSCAASGFTFDFYVMGWYRPAPGTERELVAANSWDGGTTYYADSVKGRFTISRDNAKNTVYLQLNSLKPEDTAVYYCAADDWVYVPTGAWYLYEYWGQGTQVTVSS	high polyreactivity
QVQLEESGGGLVQAGGSLRLSCAASGRIFKRYAMGWYRQAPGKERELVAAITWSGTRTYYADSVKGRFTISRDNAKNTVYLQMNSLKPEDTAVYYCAADQKYHQRPSEYGYWGQGTQVTVSS	high polyreactivity
QVQLVESGGGLVQAGGSLRLSCAASGRTFPVNAMGWYRQAPGKEREFVAVISSTGTTYYADSVKGRFTISLDNAKITVYLQMNSLKPEDTAVYYCARRSNRRAYVNRVGVLRTVDYWGQGTQVTVSS	low polyreactivity
QVQLVESGGGLVQAGGSLLLSCAASGFTFKCYAMGWYRQAPGKERELVAAISRSGSSTYYADSVKVRFTISRDTAKNTVYLQMNSLKPEDTAVYYCAAYYRTWGGYWGQGTQVTVSS	high polyreactivity
QVQLVESGGGLVQAGGSLRLSCAASGNIFGLYAMGWYRQAPGTERELVAAISFSDTSTYYADSVKGRYTISRDNAKNTVYLQMNSLKPEDTAVYYCAAELWFNNGEHNYWGQGTQVTVSS	high polyreactivity
QVQLVESGGGLVQAGGSLRLSCAASGSTFYVYAMGWYRQAPGKERELVAAIDDSGDRTYYADSVKGRFTISRDNAKNTVYLQMNSLKPEDTAVYYCAAEYDSWEYDYWGQGTQVTVSS	low polyreactivity
QVQLVESGGGLVQAGGSLRLSCPASGGIFEGNAMGWYRQAPGKEMELVASITYGGGSTYYADSVKGRFTISRDNAKNTVYLQMNSLKPEDTAVYYCAADATTPGVQNGYGSWGQGTQVTVSS	low polyreactivity
QVQLVESGGGLVQAGGSLRLICAASGFTFGYYAMGWYRQAPRKERELVAAISYTGGSTYYADSVKGRFTISRDNAMNTVYLQMNSLKPEDTAVYYCNAYSALYGSYNYWGQGTQVTVSS	high polyreactivity
QVQLVESGGGLVQAGGSLRLSCAASGYVYVMGWYRQAPGKERELVAAISKNGGSTYYADSVKGRFTISRYNAKNTVYLQMNSLKPEDTAVYYCAAVSYHKTEYDYWGQGTQVTVSS	high polyreactivity
QVHLVESGGGLVQAGGSHRLSCAASGSIFRYNAMGWYRQAPGKEREFVAIISYSGVRTYYADSVKGRFTISRDNAKNTVYLEMNSLKPEDTAVYYCAADFKQKGHRTRTTYWGQGTQVTVSS	high polyreactivity
QVQLEESGGGLVQAGGSLSLSCAASGSTFDNYAMGWYRKAPGKERELVADITWSGGSTYYADSVKGRFTISRDNAQNSVYLQMNSLKAEDTAVYYCNTAGYYTKYDYWGQGTQVTVSS	low polyreactivity
QVQLVESGGGLVQAGGSLRLSCAASGRILDVYVMGWYRQAPGKERELVAAISSGGSTYYADSVKGRFTISRDNAKNTVYLQMNSLKPEDTAVYYCAFYYWGQGTQVTVSS	high polyreactivity
QVQLVESRWRFVQAGGSLRLSCAASGSIFADYAMGWYRQAPGKERELVAAITFSGGSTYYADSVKGRFTISRDNAKNTVYLQMNSLKPEDTAVYYCAARWRYRYYSWGQGTQVTVSS	high polyreactivity
QVQLVESGGGLVQAGGSLRLSCAASGSIFFVYDMGWYRQAPGKERELVAAITWSGGRTTYADSVKGRFTISRDNAKNTVYLQMNSLKPEDTAVYYCAKAWPDHWYSRYDYWGQGTQVTVSS	low polyreactivity
QVQLVESGGGLVQAGGSLRLSCAASGSIRYYAMGWYRPAPGKERELVAGITRNGGSTYYADSVKGRFTISRDNAKNTVYLQMNSLKPEDTAVYYCAAGFTTRRGEYNYWGQGTQVTVSS	high polyreactivity
QVQLVESGGGLVQAGGSLRLTCDASGITFRLYAMGWSRQAPGKETELVARITDRGSTYYADSVKGRFTISRDNAKNTVYLQMNSLKPEDTAVYYCAARGYRGLVQLRYGYWGQGTQVTVSS	high polyreactivity
HVQLEESGGGLDQAGGSLRLSCAASGITFVRNAMGWYRQAPGKERELVAVITSGGGTYYADSVKGRFTISRDNAKNTVYLQMNSLKPEDTAVYYWAGDIHVNGSGYWGKGTQVTVSS	low polyreactivity
QVQLVESGGGLVQAGGSLRLTCAASGFIFDTYAMGWYRQAPGKERELVAAISWTGTDTYYADSVKGRFTISRDNAKNTVYLQMNSLKPEDTAVYYCAARSRYKYSPSGDYWGQGTQVTVSS	high polyreactivity
QVQLVESGGGLVQAGGSLRLSCAASGRIFSSYAMGWYRQEPGKERELVAVIRWSSGSTYYADSVKGRFTISRDNAKNTVYLQMNSLKPEDTAVYYCAALRRRSTKFEHDYWGQGTQVTVSS	high polyreactivity
QVQLVESGGGLVQAGGSLRLSCAASGFIFSYYAMGWYRQAPGKERELVADISRGGSTYYADSVKGRFTISRDNAKNTVYLQMNSLKPEDTAVYYCNAYIRYVVNGYRVYSFDYWGQGTQVTVSS	high polyreactivity
QVQLVESGGGLVQAGGSLRLSCAASGLTFYANAMGWYRQAPGKERELVATISVGTDSTNYADSVKGRFTISRDNAKYTVYLQMNRLKPEDTAVYYCNALYEEYYAQDPYDYWGQGTQVTVSS	high polyreactivity
QVQVVESGGGLDQAGGSLRLSCAASGSIFQVYSMGWYRQAPGQERALVAAITWAAGSTYADSVKGRFTISRDNAKNTVYLQLKSLKPDDTAVYYCAAYPYVGYVTSSAYDYWGQGTQVTVSS	low polyreactivity
QVQLVESGGGLVQAGGSLRLSCPASGSTFRHYVMGRYRQAPGKERELVAAINWTSGSTNYADSVKGRFTISRDNAKNTVYFQMNSLKPEDTAVYYCAARGPVGYGWRYRPWHDYWGQGTQVTVSS	high polyreactivity
QVQLVESGGGLVQAGGSLRLSCAASGINFGSNAMGWYRQAPGKERELVAAISKRGGNTYYADSVKGRFTISRDNAKNTVYLQMNSLKPEYTAVYYCATQQYLYAQKSYVEMDYWGQGTQVSVSS	high polyreactivity
QVQLVESGGGLVQAGGSLRLSCAASGSIFNLYTMGWYRQAPGKEMELVAVITGGGSTYYADSVKGRFTISRDNAKNTVYLQMNSLKPADTAVYYCAAKGPFYKSSRTGDYWGQGTQVTVSS	low polyreactivity
QVQLVESGGGLVQAGGSLRLSCAASGRIFTYYAMGWYRQAPGKERELVAAINWGVVTTYYADSVKGRFTISRDNAKNTVYLQMNSLKPEDSAVYYCAADWFAANYYVNPVSALYYWGQGTQVTVSS	low polyreactivity
QVQLVESGGGLVQAGGSLRLSCAAYGSTFRYNPLGWYRQAPGKETELVAANTSGGGTNSADSVKGRFTISRDNAKNTVYLQMNSLKPEDTAVYYCAAPWGLGSELLKRDYWGQGTQVTVSS	low polyreactivity
HVQLVESGGGLVQAGGSLRLSCAASVTFSFYAMGWYTQSPGKERELVAAISSIGDSTYYADSVKGRFTISRDNAKNTVYLQMNSLKPEETAVYYYGVIAVDAYDYYTYDYWRQGTQVTVSS	high polyreactivity
QVQLVESGGGLVQAGGSLRLSCAASGSIFIYYAMGWYRQAPGKEREFVAAISYSDGDTYYADSVKGRFTISRDNAKNTVYLQMNSLKPEDTAVYYCAAEVPQYYDVGWEDHWGQGTQVTVSS	high polyreactivity
QVQLVESGGGLVQAGGSLRLSCAASGRTFWYYTMGWYRQAPGKERELVAGITGTGGSTYYADSVKGRFTISRDNAKNTVYLQMNSLKPEDTAVYYCNALRRSQRYWDPYGYDYWGQGTQVTVSS	high polyreactivity
